One block for each substance: values may come before it.
Tests used:
[1] = target: Cdk2 (Homo sapiens) (UniProt P24941); settings: cited from earlier work
[2] = target: cyclin A (Homo sapiens) (UniProt P20248); settings: cited from earlier work
[3] = target: Cdk2/cyclin A complex (full length human Cdk2 with truncated human cyclin A, residues 173–432) (human) (UniProt P24941); test: ITC

cyclin A (Homo sapiens), sequence (P20248 whole entry, the tested form may be a part): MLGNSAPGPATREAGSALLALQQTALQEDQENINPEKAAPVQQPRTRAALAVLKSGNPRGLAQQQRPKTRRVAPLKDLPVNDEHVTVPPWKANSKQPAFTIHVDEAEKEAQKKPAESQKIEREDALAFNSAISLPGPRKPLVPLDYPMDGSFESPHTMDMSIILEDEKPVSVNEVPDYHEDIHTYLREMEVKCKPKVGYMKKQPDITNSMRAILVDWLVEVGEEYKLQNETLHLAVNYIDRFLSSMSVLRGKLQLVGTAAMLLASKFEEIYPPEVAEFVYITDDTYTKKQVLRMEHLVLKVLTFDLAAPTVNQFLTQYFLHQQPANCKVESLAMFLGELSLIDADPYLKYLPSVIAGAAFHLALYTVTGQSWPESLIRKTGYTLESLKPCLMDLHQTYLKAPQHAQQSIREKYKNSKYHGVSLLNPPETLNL

Substance: p27 D2 (from UniProt P46527)
Kd [1]: 70 nM

Substance: p27 D1 (from UniProt P46527)
Kd [2]: 25 nM

Kd [3]: 61 nM
Substance: sub-domain D1 of p21 (domain or fragment)
